Test results taken from publication PMC3093369.
Several values for one entry are separate records, joined by “and”; a condition that tells them apart may be missing. Equal entries are not always repeated.

Columns and labels:
[1] = target: recombinant Fasciola hepatica helminth defence molecule-1 (FhHDM-1) (Fasciola hepatica); test: AUC; sedimentation velocity, 0.1 mg/ml, 20°C, 10 mM sodium citrate, 50 mM NaF, pH 4.5, 40,000 rpm; c(s) and c(M) distributions (SEDFIT)
[2] = target: recombinant Fasciola hepatica helminth defence molecule-1 (FhHDM-1) (Fasciola hepatica); test: AUC; sedimentation velocity, 0.1 mg/ml, 20°C, 10 mM Tris, 50 mM NaF, pH 7.3, 40,000 rpm; c(s) and c(M) distributions (SEDFIT)

In the case of “recombinant Fasciola hepatica helminth defence molecule-1 (FhHDM-1) (natural protein)”, the stoichiometry N [1] is reported as 2 and 5 and the stoichiometry N [2] is reported as 3.
